Results: US20220040304A1, “A COMPOSITION FOR CANCER CELL DEATH AND ITS USE” (Industry-University Cooperation Foundation Hanyang …, priority 2018, published 2022)
Where a chain is given by its changes, count along the chain named.

B1: RLuc8.6: third protein, mutant Renilla luciferase 8.6 providing light, 38 kDa (protein)
chain: MASKVYDPEQRKRMITGPQWWARCKQMNVLDSFINYYDSEKHAENAVIFLHGNATSSYLWRHVVPHIEPVARCIIPDLIGMGKSGKSGNGSYRLLDHYKYLTAWFELLNLPKKIIFVGHDWGSALAFHYAYEHQDRIKAIVHMESVVDVIESWMGWPDIEEELALIKSEEGEKMVLENNFFVETLLPSKIMRKLEPEEFAAYLEPFKEKGEVRRPTLSWPREIPLVKGGKPDVVQIVRNYNAYLRASDDLPKLFIESDPGFFYNAIVEGAKKFPNTEFVKVKGLHFLQEDAPDEMGKYIKSFVERVLKNEQ
modifications: RLuc8.6
notes: third protein, mutant Renilla luciferase 8.6 providing light, 38 kDa
B2: RLuc8: third protein, mutant Renilla luciferase 8 providing light, 38 kDa (protein)
chain: B1 chain with S123A, M154D, G155E, E162D, L163I, L185V, Y263S
modifications: RLuc8

How the values were obtained:
[1] = Bioluminescence assay of purified proteins with Co-h substrate (BRET); type: physicochemical; conditions: protein 1 μM, Co-h 50 μM, 1×PBS
Description: In addition, 100 μL of buffer (1×PBS) containing the protein purified in Example 1 (final concentration: 1 μM) was dispensed into a 96-well plate (SPL Cell Culture Plate, 96 well (SPL, Cat #30196)), and bioluminescence assay was then performed using 50 μL of buffer (1×PBS) containing a Co-h substrate solution (final concentration: 50 μM), which is a wild-type 2-deoxy derivative. Bioluminescence intensity was immediately measured at a wavelength of 300 to 800 nm using a Thermo Scientific™ Varioskan™ Flash Multimode Reader.

[2] = Stability of bioluminescence intensity in PBS or normal mouse serum; conditions: buffer (1×PBS) or normal mouse serum, 37° C., protein 10 μM, Co-h 150 μM
Description: Bioluminescence assay was performed by reaction of 30 μL of buffer (1×PBS) containing the purified protein RLuc8.6 or RLuc8.6-KR-LP protein, or RLuc8 or RLuc8-MS-LP protein (final concentration: 10 μM) and 0.8 μL of a Co-h substrate solution (final concentration: 150 μM) in an incubator (37° C.). 30 μL of normal mouse serum (Jackson ImmunoResearch, USA) containing the purified protein (final concentration: 10 μM) and 0.8 μL of a Co-h substrate solution (final concentration: 150 μM) were reacted in an incubator (37° C.). Bioluminescence intensity was immediately measured using GLOMAX.

Molecule	emission in bioluminescence assay (BRET) [1]	luminescence intensity with increasing reaction time (stability) [2]
B1	535 nm	constant
B2	480 nm	
